In patent US20100311648A1 (AstraZeneca / MedImmune, published 2010):
Blank lines part the entries; values can stand above or below the binder they belong to. Positions of bridges follow the written chain, without caps; N, C: chain ends. Non-standard residues stand in square brackets, D forms with d. dPhe(4-CN) = N#Cc1ccc(C[C@@H](N)C(=O)O)cc1; dPhe(2-Cl) = N[C@H](Cc1ccccc1Cl)C(=O)O; dPhe(4-F) = N[C@H](Cc1ccc(F)cc1)C(=O)O; dPhe(2-F) = N[C@H](Cc1ccccc1F)C(=O)O; Orn = NCCC[C@H](N)C(=O)O

Experiments:
[1] = target: T1, human melanocortin-4 receptor (human, UniProt P32245 1-332); assay: cell-based or functional assay
T1 sequence (P32245 whole entry): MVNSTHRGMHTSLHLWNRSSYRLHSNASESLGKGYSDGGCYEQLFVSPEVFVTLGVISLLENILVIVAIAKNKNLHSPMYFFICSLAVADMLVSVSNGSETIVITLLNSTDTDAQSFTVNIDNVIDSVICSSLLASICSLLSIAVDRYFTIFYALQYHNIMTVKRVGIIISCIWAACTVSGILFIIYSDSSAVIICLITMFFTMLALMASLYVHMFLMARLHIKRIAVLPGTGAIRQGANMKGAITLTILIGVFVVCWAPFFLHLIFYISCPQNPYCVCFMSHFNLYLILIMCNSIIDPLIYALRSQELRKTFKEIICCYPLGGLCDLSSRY

melanocortin-1 receptor = target: T2, melanocortin-1 receptor (mouse (B-16 melanoma cells); in some …, UniProt Q01727 1-315); assay: [I125]-NDP-α-MSH competition, MC1-R membranes
T2 construct: whole, on cells; membrane homogenates; also called MC1-R; mouse B16 MC1-R
T2 sequence (Q01727 whole entry): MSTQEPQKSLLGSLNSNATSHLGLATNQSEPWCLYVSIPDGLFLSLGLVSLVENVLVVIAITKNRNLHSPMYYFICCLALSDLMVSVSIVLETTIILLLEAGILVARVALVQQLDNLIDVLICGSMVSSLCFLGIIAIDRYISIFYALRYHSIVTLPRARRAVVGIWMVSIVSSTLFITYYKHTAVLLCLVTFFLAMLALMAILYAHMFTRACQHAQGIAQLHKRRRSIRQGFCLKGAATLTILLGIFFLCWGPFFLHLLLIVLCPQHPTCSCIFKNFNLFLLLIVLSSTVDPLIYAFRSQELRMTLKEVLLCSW
Description: (§1) A competitive inhibition binding assay was performed for exemplified peptides according to the invention using membrane homogenates prepared from HEK-293 cells that express recombinant hMC4-R, hMC3-R, or hMC5-R, and from B-16 mouse melanoma cells (containing endogenous MC1-R). In some instances, HEK-293 cells that express recombinant hMC1-R were employed. Assays were performed in 96 well GF/B Millipore multiscreen filtration plates (MAFB NOB10) pre-coated with 0.5% bovine serum albumin (Fraction V). […] After incubation for 60 minutes at 37° C., the assay mixture was filtered and the membranes washed three times with ice-cold buffer. Filters were dried and counted in a gamma counter for bound radioactivity. […] Each assay was conducted in triplicate and the actual mean values are described, with results less than 0% reported as 0%. Ki values for test peptides of the present invention were determined using Graph-Pad Prism® curve-fitting software.

[2] = target: T1, human melanocortin-4 receptor; assay: [I125]-NDP-α-MSH competition, hMC4-R HEK-293 membranes
Description: as §1

B2: Ac-Arg-cyclo(Glu-Thr-D-Phe(4-CN)-Arg-Trp-Orn)-NH2 (peptide)
peptide: Ac-RET[dPhe(4-CN)]RW[Orn]-NH2
modifications: lactam 2-7
SMILES: CC(=O)N[C@@H](CCCNC(=N)N)C(=O)N[C@H]1CCC(=O)NCCC[C@@H](C(N)=O)NC(=O)[C@H](Cc2c[nH]c3ccccc23)NC(=O)[C@H](CCCNC(=N)N)NC(=O)[C@@H](Cc2ccc(C#N)cc2)NC(=O)[C@H]([C@@H](C)O)NC1=O
notes: also called No. 44
- EC50, cAMP, 0.1 ng/mL Doxycycline [1]: 11 nM
- EC50, cAMP, 10 ng/mL Doxycycline [1]: 0.617 nM
- Intrinsic Activity, cAMP, 0.1 ng/mL Doxycycline [1]: 22%
- Intrinsic Activity, cAMP, 10 ng/mL Doxycycline [1]: 99%
- Ki (melanocortin-1 receptor): 1620 nM
- Ki [2]: 18 nM

B4: Ac-Arg-cyclo(Glu-Glu-D-Phe(4-CN)-Arg-Trp-Orn)-NH2 (peptide)
peptide: Ac-REE[dPhe(4-CN)]RW[Orn]-NH2
modifications: lactam 2-7
SMILES: CC(=O)N[C@@H](CCCNC(=N)N)C(=O)N[C@H]1CCC(=O)NCCC[C@@H](C(N)=O)NC(=O)[C@H](Cc2c[nH]c3ccccc23)NC(=O)[C@H](CCCNC(=N)N)NC(=O)[C@@H](Cc2ccc(C#N)cc2)NC(=O)[C@H](CCC(=O)O)NC1=O
- EC50, cAMP, 10 ng/mL Doxycycline [1]: 9 nM
- Intrinsic Activity, cAMP, 0.1 ng/mL Doxycycline [1]: 3%
- Intrinsic Activity, cAMP, 10 ng/mL Doxycycline [1]: 59%
- Ki (melanocortin-1 receptor): 10000 nM
- Ki [2]: 128 nM

B5: Ac-Arg-cyclo(Glu-Pro-D-Phe(4-CN)-Arg-Trp-Orn)-NH2 (peptide)
peptide: Ac-REP[dPhe(4-CN)]RW[Orn]-NH2
modifications: lactam 2-7
SMILES: CC(=O)N[C@@H](CCCNC(=N)N)C(=O)N[C@H]1CCC(=O)NCCC[C@@H](C(N)=O)NC(=O)[C@H](Cc2c[nH]c3ccccc23)NC(=O)[C@H](CCCNC(=N)N)NC(=O)[C@@H](Cc2ccc(C#N)cc2)NC(=O)[C@@H]2CCCN2C1=O
notes: also called No. 39
- EC50, cAMP, 10 ng/mL Doxycycline [1]: 1 nM
- Intrinsic Activity, cAMP, 0.1 ng/mL Doxycycline [1]: 4%
- Intrinsic Activity, cAMP, 10 ng/mL Doxycycline [1]: 79%
- Ki (melanocortin-1 receptor): 1550 nM
- Ki [2]: 4 nM

B6: Ac-Arg-cyclo(Glu-Ser-D-Phe(2-Cl)-Arg-Trp-Orn)-NH2 (peptide)
peptide: Ac-RES[dPhe(2-Cl)]RW[Orn]-NH2
modifications: lactam 2-7
SMILES: CC(=O)N[C@@H](CCCNC(=N)N)C(=O)N[C@H]1CCC(=O)NCCC[C@@H](C(N)=O)NC(=O)[C@H](Cc2c[nH]c3ccccc23)NC(=O)[C@H](CCCNC(=N)N)NC(=O)[C@@H](Cc2ccccc2Cl)NC(=O)[C@H](CO)NC1=O
notes: also called No. 31
- EC50, cAMP, 0.1 ng/mL Doxycycline [1]: 7 nM
- EC50, cAMP, 10 ng/mL Doxycycline [1]: 0.313 nM
- Intrinsic Activity, cAMP, 0.1 ng/mL Doxycycline [1]: 33%
- Intrinsic Activity, cAMP, 10 ng/mL Doxycycline [1]: 98%
- Ki (melanocortin-1 receptor): 300 nM
- Ki [2]: 8 nM

B7: Ac-Arg-cyclo(Glu-Asp-D-Phe(4-CN)-Arg-Trp-Orn)-OH (peptide)
peptide: Ac-RED[dPhe(4-CN)]RW[Orn]-OH
modifications: lactam 2-7
SMILES: CC(=O)N[C@@H](CCCNC(=N)N)C(=O)N[C@H]1CCC(=O)NCCC[C@@H](C(=O)O)NC(=O)[C@H](Cc2c[nH]c3ccccc23)NC(=O)[C@H](CCCNC(=N)N)NC(=O)[C@@H](Cc2ccc(C#N)cc2)NC(=O)[C@H](CC(=O)O)NC1=O
notes: also called No. 107
- Intrinsic Activity, cAMP, 0.1 ng/mL Doxycycline [1]: 4%
- Intrinsic Activity, cAMP, 10 ng/mL Doxycycline [1]: 64%
- Ki (melanocortin-1 receptor): 10000 nM
- Ki [2]: 6460 nM

B8: Ac-Arg-cyclo(Glu-Ser-D-Phe(4-CN)-Arg-Trp-Orn)-NH2 (peptide)
peptide: Ac-RES[dPhe(4-CN)]RW[Orn]-NH2
modifications: lactam 2-7
SMILES: CC(=O)N[C@@H](CCCNC(=N)N)C(=O)N[C@H]1CCC(=O)NCCC[C@@H](C(N)=O)NC(=O)[C@H](Cc2c[nH]c3ccccc23)NC(=O)[C@H](CCCNC(=N)N)NC(=O)[C@@H](Cc2ccc(C#N)cc2)NC(=O)[C@H](CO)NC1=O
notes: also called No. 45
- EC50, cAMP, 10 ng/mL Doxycycline [1]: 0.45 nM
- Intrinsic Activity, cAMP, 0.1 ng/mL Doxycycline [1]: 12%
- Intrinsic Activity, cAMP, 10 ng/mL Doxycycline [1]: 87%
- Ki (melanocortin-1 receptor): 10000 nM
- Ki [2]: 10 nM

The next binders have a lower Ki (melanocortin-1 receptor) than those just listed; values first:

- EC50, cAMP, 0.1 ng/mL Doxycycline [1]: 0.25 nM
- EC50, cAMP, 10 ng/mL Doxycycline [1]: 0.095 nM
- Intrinsic Activity, cAMP, 0.1 ng/mL Doxycycline [1]: 76%
- Intrinsic Activity, cAMP, 10 ng/mL Doxycycline [1]: 92%
- Ki (melanocortin-1 receptor): 150 nM
- Ki [2]: 3 nM
Binder: Ac-REN[dPhe(4-F)]RW[Orn]-NH2 (lactam 2-7, also called No. 69) [Ac-Arg-cyclo(Glu-Asn-D-Phe(4-F)-Arg-Trp-Orn)-NH2]

- EC50, cAMP, 0.1 ng/mL Doxycycline [1]: 1 nM
- EC50, cAMP, 10 ng/mL Doxycycline [1]: 0.14 nM
- Intrinsic Activity, cAMP, 0.1 ng/mL Doxycycline [1]: 38%
- Intrinsic Activity, cAMP, 10 ng/mL Doxycycline [1]: 99%
- Ki (melanocortin-1 receptor): 130 nM
- Ki [2]: 5 nM
Binder: Ac-REP[dPhe(4-F)]RW[Orn]-NH2 (lactam 2-7; also: acetate salt, acetate salt form; also called Ex 67) [Ac-Arg-cyclo(Glu-Pro-D-Phe(4-F)-Arg-Trp-Orn)-NH2]

- EC50, cAMP, 0.1 ng/mL Doxycycline [1]: 5 nM
- EC50, cAMP, 10 ng/mL Doxycycline [1]: 0.265 nM
- Intrinsic Activity, cAMP, 0.1 ng/mL Doxycycline [1]: 32%
- Intrinsic Activity, cAMP, 10 ng/mL Doxycycline [1]: 88%
- Ki (melanocortin-1 receptor): 95 nM
- Ki [2]: 6 nM
B3: Ac-Arg-cyclo(Glu-Pro-D-Phe(2-F)-Arg-Trp-Orn)-NH2 (peptide)
peptide: Ac-REP[dPhe(2-F)]RW[Orn]-NH2
modifications: lactam 2-7
SMILES: CC(=O)N[C@@H](CCCNC(=N)N)C(=O)N[C@H]1CCC(=O)NCCC[C@@H](C(N)=O)NC(=O)[C@H](Cc2c[nH]c3ccccc23)NC(=O)[C@H](CCCNC(=N)N)NC(=O)[C@@H](Cc2ccccc2F)NC(=O)[C@@H]2CCCN2C1=O
notes: also called No. 66

- EC50, cAMP, 0.1 ng/mL Doxycycline [1]: 1 nM
- EC50, cAMP, 10 ng/mL Doxycycline [1]: 0.085 nM
- Intrinsic Activity, cAMP, 0.1 ng/mL Doxycycline [1]: 58%
- Intrinsic Activity, cAMP, 10 ng/mL Doxycycline [1]: 93%
- Ki (melanocortin-1 receptor): 43 nM
- Ki [2]: 5 nM
B1: Ac-Arg-cyclo(Glu-Ser-D-Phe(4-F)-Arg-Trp-Orn)-NH2 (peptide)
peptide: Ac-RES[dPhe(4-F)]RW[Orn]-NH2
modifications: lactam 2-7
SMILES: CC(=O)N[C@@H](CCCNC(=N)N)C(=O)N[C@H]1CCC(=O)NCCC[C@@H](C(N)=O)NC(=O)[C@H](Cc2c[nH]c3ccccc23)NC(=O)[C@H](CCCNC(=N)N)NC(=O)[C@@H](Cc2ccc(F)cc2)NC(=O)[C@H](CO)NC1=O
notes: also called No. 65
